Test results: the RNAGym collection of RNA variant scans (doi:10.1021/acssynbio.7b00057)

B1: Pistol ribozyme (parent)
chain: GGGUCGUUGUUCCAUAAUCGCGUGGAUAUGGCACGCAAGUUUCUACCGGGCACCGUAAAUGUCCGACUGGAGCCGUUCGGGCGGCUAUAAACAGACCUCAGGCCCGAAGCGUGGCGGCACCUGCCGCCGGUGGUAAAAAAGAUCGGAAGAGCACACGUCU

Variants of: B1
Assay: aptazyme ON/OFF ratio, guanine; higher = stronger switching; co-transcriptional cleavage with and without guanine

Row | Variant | aptazyme ON/OFF ratio
1 | U7A U10A C12U | 1.1
2 | U7A U10A C12G | 1.22
3 | U7A U10A C12A | 1.31
4 | U7A U8G U10C U11G C12U | 1.29
5 | U7A U8G U10C U11G C12A | 1.43
6 | U7A U8G U10C U11G C12G | 1.33
7 | U7A U10C U11A C12G | 1.26
8 | U7A U10C U11A C12U | 1.3
9 | U7A U10C U11A C12A | 1.23
10 | U7A U10C | 4.51
11 | U7A U10A | 1.11
12 | U7A U10G | 1.56
13 | U7A U8G U11A C12G C13U | 1.24
14 | U7A U8G U11A C12G C13G | 1.07
15 | U7A U8G U11A C12G C13A | 1.11
16 | U7A U10A U11A C13A | 1.19
17 | U7A U10A U11A C13G | 1.15
18 | U7A U10A U11A C13U | 1.16
19 | U7A U10A U11A C12U C13U | 1.22
20 | U7A U10A U11A C12U C13G | 1.26
21 | U7A U10A U11A C12U C13A | 1.15

Row | Variant | aptazyme ON/OFF ratio
22 | U7A U10G U11G C12G C13G | 1.28
23 | U7A U10G U11G C12G C13A | 1.11
24 | U7A U10G U11G C12G C13U | 1.22
25 | U7A U8G U10C U11C C13G | 1.13
26 | U7A U8G U10C U11C C13A | 1.06
27 | U7A U8G U10C U11C C13U | 1.12
28 | U7A U10A U11A C12G C13U | 1.25
29 | U7A U10A U11A C12G C13A | 1.07
30 | U7A U10A U11A C12G C13G | 1.46
31 | U7A U8G U10G U11C C12A C13G | 1.11
32 | U7A U8G U10G U11C C12A C13A | 1.39
33 | U7A U8G U10G U11C C12A C13U | 1.51
34 | U7A U10A U11C C12A C13G | 1.03
35 | U7A U10A U11C C12A C13A | 1.1
36 | U7A U10A U11C C12A C13U | 1.11
37 | U7A U8G U11C C13G | 1.35
38 | U7A U8G U11C C13U | 1.11
39 | U7A U8G U11C C13A | 1.51
40 | U7A U10C C12G C13A | 1.29
41 | U7A U10C C12G C13G | 1.35
42 | U7A U10C C12G C13U | 1.28

Row | Variant | aptazyme ON/OFF ratio
43 | U7A U8G U11G C13A | 1.26
44 | U7A U8G U11G C13G | 1.24
45 | U7A U8G U11G C13U | 1.31
46 | U7A U8G U11C C12A C13A | 1.17
47 | U7A U8G U11C C12A C13G | 1.12
48 | U7A U8G U11C C12A C13U | 1.19
49 | U7A U10G U11C C12G C13U | 1.34
50 | U7A U10G U11C C12G C13A | 1.13
51 | U7A U10G U11C C12G C13G | 1.11
52 | U7A U10A U11G C12A | 1.13
53 | U7A U10A U11G C12U | 1.15
54 | U7A U10A U11G C12G | 1.45
55 | U7A U10C U11G C12A C13G | 1.23
56 | U7A U10C U11G C12A C13U | 1.26
57 | U7A U10C U11G C12A C13A | 1.28
58 | U7A U8G U10C U11G C12A C13A | 1.42
59 | U7A U8G U10C U11G C12A C13U | 1.19
60 | U7A U8G U10C U11G C12A C13G | 1.61
61 | U7A U10G C12G C13U | 1.2
62 | U7A U10G C12G C13G | 1.08
63 | U7A U10G C12G C13A | 1.08

Row | Variant | aptazyme ON/OFF ratio
64 | U7A U10A C12G C13U | 1.27
65 | U7A U10A C12G C13A | 1.31
66 | U7A U10A C12G C13G | 1.25
67 | U7A U8G U10G C12G C13A | 1.26
68 | U7A U8G U10G C12G C13G | 1.3
69 | U7A U8G U10G C12G C13U | 1.21
70 | U7A U8G U10C U11C C12G C13U | 1.19
71 | U7A U8G U10C U11C C12G C13G | 1.26
72 | U7A U8G U10C U11C C12G C13A | 1.07
73 | U7A U8G U10G U11G C12U C13U | 1.38
74 | U7A U8G U10G U11G C12U C13G | 1.33
75 | U7A U8G U10G U11G C12U C13A | 1.31
76 | U7A U8G U10C U11G C12U C13G | 1.44
77 | U7A U8G U10C U11G C12U C13A | 1.26
78 | U7A U8G U10C U11G C12U C13U | 1.31
79 | U7A U8G U10G U11G C12A C13G | 1.47
80 | U7A U8G U10G U11G C12A C13A | 1.22
81 | U7A U8G U10G U11G C12A C13U | 1.41
82 | U7A U8G U11C C12U | 1.31
83 | U7A U8G U11C C12A | 1.24
84 | U7A U8G U11C C12G | 1.05
